Assay results reported in article PMC6101370.

T1: histidine kinase EnvZ from Escherichia coli (Escherichia coli) (UniProt P0AEJ4)
T1 sequence (P0AEJ4 whole entry, looked up): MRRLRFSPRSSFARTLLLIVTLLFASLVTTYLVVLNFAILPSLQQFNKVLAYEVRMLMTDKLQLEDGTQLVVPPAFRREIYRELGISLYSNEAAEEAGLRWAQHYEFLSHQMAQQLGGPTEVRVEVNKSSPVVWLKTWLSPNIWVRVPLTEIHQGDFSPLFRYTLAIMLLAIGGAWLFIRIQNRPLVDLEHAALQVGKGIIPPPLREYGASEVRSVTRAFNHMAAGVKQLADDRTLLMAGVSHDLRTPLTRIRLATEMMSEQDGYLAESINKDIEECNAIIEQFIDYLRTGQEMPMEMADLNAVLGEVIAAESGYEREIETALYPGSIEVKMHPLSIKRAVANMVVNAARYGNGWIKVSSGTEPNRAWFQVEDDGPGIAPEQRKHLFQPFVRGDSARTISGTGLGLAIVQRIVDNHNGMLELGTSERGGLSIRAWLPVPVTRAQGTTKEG


Target: T1, histidine kinase EnvZ from Escherichia coli (Escherichia coli)

in vitro phosphotransfer rate from EnvZ, ratio v (mutant) / v (w.t.) | Binder
1 | Spo0F M55L (natural protein) MMNEKILIVDDQYGIRILLNEVFNKEGYQTFQAANGLQALDIVTKERPDLVLLDLKIPGMDGIEILKRMKVIDENIRVIIMTAYGELDMIQESKELGALTHFAKPFDIDEIRDAVKKYLPLKSN
1 | Spo0F I108L (natural protein) MMNEKILIVDDQYGIRILLNEVFNKEGYQTFQAANGLQALDIVTKERPDLVLLDMKIPGMDGIEILKRMKVIDENIRVIIMTAYGELDMIQESKELGALTHFAKPFDLDEIRDAVKKYLPLKSN
